According to patent US20190276523A1:

B1: MuG6 antibody (format in the CDC and ADCC assays not stated) (antibody, V domains shown)
VH: QVQLQQSGTVLARPGASVKMSCKASGYTFTSYWMHWVKQRPGQGLEWIGAVSPGNSDTSYNQKFKGKATLTAVTSTSTAYMEFSSLTNEDSAVYYCTRSRYGNNALDYWGQGTTVTVSS
VL: DIELTQSPSSMSVSLGDTVNITCRASQGISSNIVWLQQKPGKSFKGLIYHGTNLEDGVPSRFSGSGSGADYSLTISSLESEDFADYYCVQYSQFPPTFGSGTKLELK
modifications: APC-conjugated in the flow cytometry of FIG.11C
B2: HuG6.3 (format not stated, Octet-Red assay) (antibody, V domains shown)
VH: QVQLVQSGAEVVKPGASVKVSCKASGYTFTSYWMHWVKQAPGQGLEWIGAVSPGNSDTSYNEKFKGKATLTVDKSASTAYMELSSLRSEDTAVYYCTRSRYGNNALDYWGQGTLVTVS
VL: DIQLTQSPSSLSASVGDRVTITCRASQGISSNIVWLQQKPGKAPKGLIYHGTNLESGVPSRFSGSGSGTDYTLTISSLEPEDFATYYCVQYSQFPPTFGQGTKLEIK

How the values were obtained:
[1] = target: D80 scFv-Fc-CD28-gp41 expressed on 293T cells (human; HIV-1) [IgG part: P01857]; experiment: cell-based or functional assay
[2] = target: F43 scFv-Fc-CD28-gp41 expressed on 293T cells (human; HIV-1) [IgG part: P01857]; experiment: cell-based or functional assay
[3] = target: F70 scFv-Fc-CD28-gp41 expressed on 293T cells (human; HIV-1) [IgG part: P01857]; experiment: cell-based or functional assay
[4] = target: F70 scFv-Fc-CD28-gp41 expressed on 293T cells (human; HIV-1) [IgG part: P01857]; experiment: flow cytometry, 293T-F70 cells stained with APC-conjugated MuG6
[5] = target: 11A scFv-Fc-CD28-gp41 expressed on 293T cells (human; HIV-1) [IgG part: P01857]; experiment: flow cytometry, 293T-11A cells stained with APC-conjugated MuG6
[6] = target: F43 scFv-Fc-CD28-gp41 expressed on 293T cells (human; HIV-1) [IgG part: P01857]; experiment: flow cytometry, 293T-F43 cells stained with APC-conjugated MuG6
[7] = target: D80 scFv-Fc-CD28-gp41 expressed on 293T cells (human; HIV-1) [IgG part: P01857]; experiment: flow cytometry, 293T-D80 cells stained with APC-conjugated MuG6
[8] = target: F43 scFv-Fc (human) [IgG part: P01857]; experiment: Octet-Red biolayer interferometry, SA sensor tips, 2:1 model; reference pair HuG6.3 and D80 scFv-Fc

Binder | CDC, percent of target cells killed (LDH release, rabbit serum) (% of target cells killed) [1] | CDC, percent of target cells killed (LDH release, rabbit serum) (% of target cells killed) [2] | CDC, percent of target cells killed (LDH release, rabbit serum) (% of target cells killed) [3] | % of cells in Q2 (ZsGreen+, G6-id+) [4] [%] | % of cells in Q3 (ZsGreen-, G6-id+) [4] [%] | % of cells in Q3 (ZsGreen-, G6-id+) [5] [%] | % of cells in Q2 (ZsGreen+, G6-id+) [6] [%] | % of cells in Q3 (ZsGreen-, G6-id+) [6] [%] | % of cells in Q2 (ZsGreen+, G6-id+) [7] [%] | % of cells in Q3 (ZsGreen-, G6-id+) [7] [%] | fold increase in binding affinity compared to D80 scFv-Fc [8] [fold] | fold slower Koff compared to D80 scFv-Fc [8] [fold] | fold slower Kon compared to D80 scFv-Fc [8] [fold]
B1 | 20 | 20 | 20 | 44 | 6.15 | 0.097 | 41.3 | 9.11 | 43.3 | 5.28 | – | – | –
B2 | – | – | – | – | – | – | – | – | – | – | 50 | 600 | 3.5
